The RNAGym collection of RNA variant scans (doi:10.7554/elife.90254)

B1: OR4K15 (parent)
chain: GUUAACGGUCAUAGGCCAUGGAAACUAGGAGCACCAUUUCGCUGCCAGUGAAGAAAUGAACAAAGAAAAUCUGGGCCAGGCAGGCAUCAAAAGAAAUAGUCUUGCGCUCAACCAGAAAGUCUGUAAUCAUUUUAAGGGUA

Variants of: B1
Test: self-cleavage, relative activity (ratio to wild type); higher = more cleavage; in vitro, sequencing; the parent is a self-cleaving ribozyme

Variant | self-cleavage
GUUAACGGUCCUAGGCCAUGGGAACUAGGAGCACCAUUUCGCUGCCAGUGAAGAAAUGAACAAAGAAAAUCUGGGCCAGGCAGGCAUCAAAAGAAAUAGUCUUGCGCUCAACCAGAAAGUCUGUAAUCAUUUUAAGGGUA [A11C A22G] | 0.94
GUUAACGGUCGUAGGCCAUGGAAACUCGGAGCACCAUUUCGCUGCCAGUGAAGAAAUGAACAAAGAAAAUCUGGGCCAGGCAGGCAUCAAAAGAAAUAGUCUUGCGCUCAACCAGAAAGUCUGUAAUCAUUUUAAGGGUA [A11G A27C] | 0.61
GUUAACGGUCCUAGGCCAUGGAAACUAGGAGCACCAUUUCGCUGCCAGUGAAGAAAUGAACAAAGAAAAUCUGGGCCAGGCAGGCAUCAAAAGAAAUAGUCUUGCGCUCAACCAGAAAGUCCGUAAUCAUUUUAAGGGUA [A11C U122C] | 1.46
GUUAACGGUCGUAGGCCAUGGAAACUAGGAGCACCAUUUCGCUGCCGGUGAAGAAAUGAACAAAGAAAAUCUGGGCCAGGCAGGCAUCAAAAGAAAUAGUCUUGCGCUCAACCAGAAAGUCUGUAAUCAUUUUAAGGGUA [A11G A47G] | 1.27
GUUAACGGUCCUGGGCCAUGGAAACUAGGAGCACCAUUUCGCUGCCAGUGAAGAAAUGAACAAAGAAAAUCUGGGCCAGGCAGGCAUCAAAAGAAAUAGUCUUGCGCUCAACCAGAAAGUCUGUAAUCAUUUUAAGGGUA [A11C A13G] | 0.93
GUUAACGGUCCUAGGCCAUGGAAACUAGGAGCACCAUUUCGCUGCCAGUGAAGAAAUGAACAAAGAAAAUCAGGGCCAGGCAGGCAUCAAAAGAAAUAGUCUUGCGCUCAACCAGAAAGUCUGUAAUCAUUUUAAGGGUA [A11C U72A] | 0.17
GUUAACGGUCCUAGGCCAUGGAAACUAGGAGCACCAUUUCGCUGCCAGUGAAGAAAUGAACAAAGAAAAUCCGGGCCAGGCAGGCAUCAAAAGAAAUAGUCUUGCGCUCAACCAGAAAGUCUGUAAUCAUUUUAAGGGUA [A11C U72C] | 0.13
GUUAACGGUUAUAGGCCAUGGAAACUAGGAGCACCAUUUCGCUGCCAGUGAAGAAAUGAACAUAGAAAAUCUGGGCCAGGCAGGCAUCAAAAGAAAUAGUCUUGCGCUCAACCAGAAAGUCUGUAAUCAUUUUAAGGGUA [C10U A63U] | 0.69
GUUAACGGUUAUAGGCCAUGGAAACUAGGAGCACCAUUUCGCUGCCAGUGAAGAAAUGAACAAAGAAAAUCUGGGCCAGGCAGGCAUCAAAAGAAAUAGUCUUGCGCUCAGCCAGAAAGUCUGUAAUCAUUUUAAGGGUA [C10U A111G] | 0.07
GUUAACGGUCGUAGGCCAUGGAAACUAGGAGCACCGUUUCGCUGCCAGUGAAGAAAUGAACAAAGAAAAUCUGGGCCAGGCAGGCAUCAAAAGAAAUAGUCUUGCGCUCAACCAGAAAGUCUGUAAUCAUUUUAAGGGUA [A11G A36G] | 0.8
GUUAACGGUUAUAGGCCAUGGAAACUAGGAGCACCAUUUCGCUGCCAGUGAAGAAAUGAACAAAGAAAAUCUGGGCCAGGCAGGCAUCAAAAGAAAUAGUCUUGCGCUCGACCAGAAAGUCUGUAAUCAUUUUAAGGGUA [C10U A110G] | 0.19
GUUAACGGUUAUAGGCCAUGGAAACUAGGAGCACCAUUUCGCUGCCAGUGAAGAAAUGAACAAGGAAAAUCUGGGCCAGGCAGGCAUCAAAAGAAAUAGUCUUGCGCUCAACCAGAAAGUCUGUAAUCAUUUUAAGGGUA [C10U A64G] | 1.25
GUUAACGGUCGUAGGCCAUGGAAACUAGGAGCACCAUUUCGCUGCCAGUGGAGAAAUGAACAAAGAAAAUCUGGGCCAGGCAGGCAUCAAAAGAAAUAGUCUUGCGCUCAACCAGAAAGUCUGUAAUCAUUUUAAGGGUA [A11G A51G] | 1.15
GUUAACGGUCGUAGGCCAUGGAAACUAGGAGCUCCAUUUCGCUGCCAGUGAAGAAAUGAACAAAGAAAAUCUGGGCCAGGCAGGCAUCAAAAGAAAUAGUCUUGCGCUCAACCAGAAAGUCUGUAAUCAUUUUAAGGGUA [A11G A33U] | 0.86
GUUAACGGUUAUAGGCCAUGGAAACUAGGAGCACCAUUCCGCUGCCAGUGAAGAAAUGAACAAAGAAAAUCUGGGCCAGGCAGGCAUCAAAAGAAAUAGUCUUGCGCUCAACCAGAAAGUCUGUAAUCAUUUUAAGGGUA [C10U U39C] | 1.02
GUUAACGGUCCUAGGCCAUGGAAACUAGGAGCACCAUUUCGCUGCCAGCGAAGAAAUGAACAAAGAAAAUCUGGGCCAGGCAGGCAUCAAAAGAAAUAGUCUUGCGCUCAACCAGAAAGUCUGUAAUCAUUUUAAGGGUA [A11C U49C] | 1.57
GUUAACGGUUAUAGGCCAUGGAAACUAGGAGCACCAUUUCGCUGCCAGUGAAGAAAUGAACAAAGAAAAUCUGGGCCAGGCAGGCAUCAAAAGAAAUAGUCUUGCGCUCAACCAGAAAGUCUGUAAUCAUCUUAAGGGUA [C10U U131C] | 0.47
GUUAACGGUUAUAGGCCAUGGAAACUAGGAGCACCAUUUCGCUGCCAGUGAAGAAAUGAACAAAGAAAAUCUGGGCCAGGCAGGCAUCAAAAGAAAUAGUCUUGCGCCCAACCAGAAAGUCUGUAAUCAUUUUAAGGGUA [C10U U108C] | 0.06
GUUAACGGUUAUAGGCCAUGGAAACUAGGAGCACCAUUUCGCUGCCAGUGAAGAAAUGAACAAAGAAAAUCUGGGCCAGGCAGGCAUCAAAAGAAAUAGUCUUGCGCUCAACCAGAAAGUCUGAAAUCAUUUUAAGGGUA [C10U U124A] | 0.36
GUUAACGGUUAUAGGCCAUGGAAACUAGGAGCACCAUUUCGCUGCCAGUGAAGAAAUGAACAAAGAAAAUCUGGGCCAGGCAGGCAUCAAAAGAAAUAGUCUUGCGCUCAACCAGAAAGUCUGUAAUCAUUCUAAGGGUA [C10U U132C] | 1.26
GUUAACGGUUAUAGGCCAUGGAAACUAGGAGCACCAUUUCGCUGCCAGUGAAGAAAUGAACAAAGAAAAUCUGGGCCAGGCAGGCACCAAAAGAAAUAGUCUUGCGCUCAACCAGAAAGUCUGUAAUCAUUUUAAGGGUA [C10U U87C] | 1.08

Variant | self-cleavage
GUUAACGGUUAUAGGCCAUGGAAACUAGGAGCACCAUUUCGCUGCCAGUGAAGAAAUGAACAAAGAAAAUCUGGGCCAGGCAGGCAUCAAAAGAAAUAGUCUUGCGCUCAACCAGAGAGUCUGUAAUCAUUUUAAGGGUA [C10U A117G] | 2.34
GUUAACGGUUAUAGGCCAUGGAAACUAGGAGCACCAUUUCGCUGCCAGUGAAGAAAUGAACAAAGAAAAUCUGGGCCAGGCAGGCAUCAAAAGAAAUAGUCUUGCGCUCAACCAGAAAGUCUGUAACCAUUUUAAGGGUA [C10U U127C] | 0.32
GUUAACGGUUAUAGGCCAUGGAAACUAGGAGCACCAUUUCGCUGCCAGUGAAGAAAUGAACAAAGAAAAUCUGGGCCAGGCAGGCAUCAAAAGAAAUAGUCUCGCGCUCAACCAGAAAGUCUGUAAUCAUUUUAAGGGUA [C10U U103C] | 1.16
GUUAACGGUCCUAGGCCAUGGAAACUAGGAGCACCAUUUCGCUGCCAGUGAAGAAAUGAACAAAGAAAAUCUGGGCCAGGCAGGCAUCAAAAGAAAUAGUCUUGCGCUCAACCAGAAGGUCUGUAAUCAUUUUAAGGGUA [A11C A118G] | 2.4
GUUAACGGUCCUAGGCCAUGGAAACUAGGAGCACCAUUUCGCUGCCAGUGAAGAAAUGAACAAAGAAAAUCUGGGCCAGGCAGGCAUCAAAAGAAAUAGUCUUGCGCUCAACCAGAAUGUCUGUAAUCAUUUUAAGGGUA [A11C A118U] | 0.72
GUUAACGGUCGUAGGCCAUGGAAACUAGGAGCACCAUUUCGCUGCCAGUGAAGAAAUGAACAAAGAAAAUCUGGGCCAGGCAGGCAUCAAAAGAAAUAGUCUUGCGCUCAACCAGAAAGUCUGUAAUCAUUUUAAGGGUA [A11G] | 0.77
GUUAACGGUCCUAGGCCAUGGAAACUAGGAGCACCAUUUCGCUGCCAGUGAAGAAAUGAACAAAGAAAAUCUGGGCCAGGCAGGCAUCAAAAGAAAUAGUCUUGCGCUCAACCAGAAAGUCUGUAAUCAUUUUAAGGGUA [A11C] | 1.41
GUUAACGGUCCUAGGCCAUGGAAACUAGGAGCACCACUUCGCUGCCAGUGAAGAAAUGAACAAAGAAAAUCUGGGCCAGGCAGGCAUCAAAAGAAAUAGUCUUGCGCUCAACCAGAAAGUCUGUAAUCAUUUUAAGGGUA [A11C U37C] | 0.79
GUUAACGGUCCUAGGCCAUGGAAACUAGGAGCACCAUUUCGCUGCCAGUGAAGAAAUGAACAAAGAAAAUCUGGGCCAGGCAGGCAUCAAAAGAAAUAGUCUUGCGCUCAACCAGAAAGUCUGUGAUCAUUUUAAGGGUA [A11C A125G] | 0.5
GUUAACGGUUAUAGGCCAUGGAAACUAGGAGCACCAUUUCGCUGCCAGUGAAGAAAUGAACAAAGAAAAUCUGGGCCAGGCAGGCAUCAAGAGAAAUAGUCUUGCGCUCAACCAGAAAGUCUGUAAUCAUUUUAAGGGUA [C10U A91G] | 0.68
GUUAACGGUCGUAGGCCAUGGAAACUAGGGGCACCAUUUCGCUGCCAGUGAAGAAAUGAACAAAGAAAAUCUGGGCCAGGCAGGCAUCAAAAGAAAUAGUCUUGCGCUCAACCAGAAAGUCUGUAAUCAUUUUAAGGGUA [A11G A30G] | 1.08
GUUAACGGUCGUAGGCCAUGGAAACUAGGAGCACCAUUUCGCUGCCAGUGAAGGAAUGAACAAAGAAAAUCUGGGCCAGGCAGGCAUCAAAAGAAAUAGUCUUGCGCUCAACCAGAAAGUCUGUAAUCAUUUUAAGGGUA [A11G A54G] | 1.01
GUUAACGGUUAUAGGCCAUGGAAACUAGGAGCACCAUUUCGCUGCCAGUGAAGAAAUGAACAAAGAAAAUCUGGGCCAGGCAGGCAUCAAAAGACAUAGUCUUGCGCUCAACCAGAAAGUCUGUAAUCAUUUUAAGGGUA [C10U A95C] | 0.6
GUUAACGGUCCUAGGCCAUGGAAACUAGGAGCACCAUUUCGCUGCCAGUGAAGAAAUGAACAAAGAAAGUCUGGGCCAGGCAGGCAUCAAAAGAAAUAGUCUUGCGCUCAACCAGAAAGUCUGUAAUCAUUUUAAGGGUA [A11C A69G] | 1.7
GUUAACGGUCGUAGGCCAUGGAAACUAGGAGCACCAUUUCGCUGCCAGUGAAGAAAUGGACAAAGAAAAUCUGGGCCAGGCAGGCAUCAAAAGAAAUAGUCUUGCGCUCAACCAGAAAGUCUGUAAUCAUUUUAAGGGUA [A11G A59G] | 0.88
GUUAACGGUCCUAGGCCAUGGAAACUAGGAGCACCAUUUCGCUGCCAGUGAAGAAAUGAACAAAGAAAAUCUGGGCCAGGCAGGCAUCAAAAGAAAUAGUCUUGCGCUCAACCAGAAAGUCUGCAAUCAUUUUAAGGGUA [A11C U124C] | 1.12
GUUAACGGUUAUAGGCCAUGGAAACUAGGAGCACCAUUUCGCUGCCAGUGAAGAAAUGAACAAAGAAAAUCUGGGCCAGGCAGGCAUCAAAAGAAAUAGUCUUGCCCUCAACCAGAAAGUCUGUAAUCAUUUUAAGGGUA [C10U G106C] | 0.03
GUUAACGGUCGUAGGCCAUGGAAACUAGGAGCACCAUUUCGCUGCCAGUGACGAAAUGAACAAAGAAAAUCUGGGCCAGGCAGGCAUCAAAAGAAAUAGUCUUGCGCUCAACCAGAAAGUCUGUAAUCAUUUUAAGGGUA [A11G A52C] | 0.82
GUUAACGGUCGUAGGCCAUGGGAACUAGGAGCACCAUUUCGCUGCCAGUGAAGAAAUGAACAAAGAAAAUCUGGGCCAGGCAGGCAUCAAAAGAAAUAGUCUUGCGCUCAACCAGAAAGUCUGUAAUCAUUUUAAGGGUA [A11G A22G] | 1.04
GUUAACGGUCCUAGGCCAUGGAAACUAGGAGCACCAUUUCGCUGCCAGUGAAGAAAUGAACAAAGAAAAUCUGGGCCCGGCAGGCAUCAAAAGAAAUAGUCUUGCGCUCAACCAGAAAGUCUGUAAUCAUUUUAAGGGUA [A11C A78C] | 0.16
